Test results reported in US20090118184A1 (UNIVERSITY OF ROCHESTER, published 2009).

T1: factor VIIIa A1/A3C1C2 dimer, wild type (human, UniProt P00451 20-391; P00451 1709-2351)
T1 sequence 1: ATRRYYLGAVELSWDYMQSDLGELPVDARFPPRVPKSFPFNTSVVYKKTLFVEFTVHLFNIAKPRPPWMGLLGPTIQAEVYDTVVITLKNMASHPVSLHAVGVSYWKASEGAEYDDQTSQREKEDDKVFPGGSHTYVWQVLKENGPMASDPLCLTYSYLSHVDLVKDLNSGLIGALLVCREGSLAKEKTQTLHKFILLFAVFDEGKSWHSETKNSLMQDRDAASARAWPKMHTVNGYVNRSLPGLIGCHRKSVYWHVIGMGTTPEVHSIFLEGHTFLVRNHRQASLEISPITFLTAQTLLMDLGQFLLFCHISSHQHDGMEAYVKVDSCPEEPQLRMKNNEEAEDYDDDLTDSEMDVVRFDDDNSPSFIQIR
T1 sequence 2: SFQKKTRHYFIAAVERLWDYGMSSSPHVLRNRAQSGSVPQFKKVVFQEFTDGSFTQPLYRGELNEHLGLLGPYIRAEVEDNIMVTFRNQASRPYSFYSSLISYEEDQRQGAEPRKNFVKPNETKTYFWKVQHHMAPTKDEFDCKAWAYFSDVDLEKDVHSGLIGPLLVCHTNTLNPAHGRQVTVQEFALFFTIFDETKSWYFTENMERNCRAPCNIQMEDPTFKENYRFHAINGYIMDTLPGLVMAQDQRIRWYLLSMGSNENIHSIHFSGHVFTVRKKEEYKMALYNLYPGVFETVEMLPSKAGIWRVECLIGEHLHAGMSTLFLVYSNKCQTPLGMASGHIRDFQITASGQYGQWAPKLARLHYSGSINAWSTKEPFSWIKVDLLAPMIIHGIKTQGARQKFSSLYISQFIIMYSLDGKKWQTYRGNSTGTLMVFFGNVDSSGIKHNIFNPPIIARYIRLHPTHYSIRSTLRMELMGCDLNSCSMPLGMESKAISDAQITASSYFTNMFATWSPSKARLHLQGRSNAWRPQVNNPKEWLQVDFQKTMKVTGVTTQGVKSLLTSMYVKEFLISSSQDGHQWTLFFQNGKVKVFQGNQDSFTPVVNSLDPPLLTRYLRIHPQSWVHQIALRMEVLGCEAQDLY


biological target: T1, factor VIIIa A1/A3C1C2 dimer, wild type; experiment: cell-based or functional assay

Binder	Factor VIIIa decay rate relative to wild type, FIXa (+)	Factor VIIIa decay rate relative to wild type, FIXa (-)	Factor VIIIa decay rate, FIXa (+) [min⁻¹]	Factor VIIIa decay rate, FIXa (-) [min⁻¹]
factor VIIIa A2 subunit, S524A (other) SVAKKHPKTWVHYIAAEEEDWDYAPLVLAPDDRSYKSQYLNNGPQRIGRKYKKVRFMAYTDETFKTREAIQHESGILGPLLYGEVGDTLLIIFKNQASRPYNIYPHGITDVRPLYSRRLPKGVKHLKDFPILPGEIFKYKWTVTVEDGPTKADPRCLTRYYSSFVNMERDLASGLIGPLLICYKESVDQRGNQIMSDKRNVILFSVFDENRSWYLTENIQRFLPNPAGVQLEDPEFQASNIMHSINGYVFDSLQLSVCLHEVAYWYILSIGAQTDFLSVFFSGYTFKHKMVYEDTLTLFPFSGETVFMSMENPGLWILGCHNSDFRNRGMTALLKVSSCDKNTGDYYEDSYEDISAYLLSKNNAIEPR	40.4 relative to wild type	7 relative to wild type	0.455	0.442
factor VIIIa A2 subunit, N684A (other) SVAKKHPKTWVHYIAAEEEDWDYAPLVLAPDDRSYKSQYLNNGPQRIGRKYKKVRFMAYTDETFKTREAIQHESGILGPLLYGEVGDTLLIIFKNQASRPYNIYPHGITDVRPLYSRRLPKGVKHLKDFPILPGEIFKYKWTVTVEDGPTKSDPRCLTRYYSSFVNMERDLASGLIGPLLICYKESVDQRGNQIMSDKRNVILFSVFDENRSWYLTENIQRFLPNPAGVQLEDPEFQASNIMHSINGYVFDSLQLSVCLHEVAYWYILSIGAQTDFLSVFFSGYTFKHKMVYEDTLTLFPFSGETVFMSMEAPGLWILGCHNSDFRNRGMTALLKVSSCDKNTGDYYEDSYEDISAYLLSKNNAIEPR	36.3 relative to wild type	18.8 relative to wild type	0.41	1.18
factor VIIIa A2 subunit, R531A (other) SVAKKHPKTWVHYIAAEEEDWDYAPLVLAPDDRSYKSQYLNNGPQRIGRKYKKVRFMAYTDETFKTREAIQHESGILGPLLYGEVGDTLLIIFKNQASRPYNIYPHGITDVRPLYSRRLPKGVKHLKDFPILPGEIFKYKWTVTVEDGPTKSDPRCLTAYYSSFVNMERDLASGLIGPLLICYKESVDQRGNQIMSDKRNVILFSVFDENRSWYLTENIQRFLPNPAGVQLEDPEFQASNIMHSINGYVFDSLQLSVCLHEVAYWYILSIGAQTDFLSVFFSGYTFKHKMVYEDTLTLFPFSGETVFMSMENPGLWILGCHNSDFRNRGMTALLKVSSCDKNTGDYYEDSYEDISAYLLSKNNAIEPR	6.72 relative to wild type		0.0758	

The next lines start with the values.

Factor VIIIa decay rate relative to wild type, FIXa (+)	Factor VIIIa decay rate relative to wild type, FIXa (-)	Factor VIIIa decay rate, FIXa (+) [min⁻¹]	Factor VIIIa decay rate, FIXa (-) [min⁻¹]	Binder
2.81 relative to wild type		0.0317		factor VIIIa A2 subunit, S650A (other) SVAKKHPKTWVHYIAAEEEDWDYAPLVLAPDDRSYKSQYLNNGPQRIGRKYKKVRFMAYTDETFKTREAIQHESGILGPLLYGEVGDTLLIIFKNQASRPYNIYPHGITDVRPLYSRRLPKGVKHLKDFPILPGEIFKYKWTVTVEDGPTKSDPRCLTRYYSSFVNMERDLASGLIGPLLICYKESVDQRGNQIMSDKRNVILFSVFDENRSWYLTENIQRFLPNPAGVQLEDPEFQASNIMHSINGYVFDSLQLSVCLHEVAYWYILSIGAQTDFLAVFFSGYTFKHKMVYEDTLTLFPFSGETVFMSMENPGLWILGCHNSDFRNRGMTALLKVSSCDKNTGDYYEDSYEDISAYLLSKNNAIEPR
1.31 relative to wild type		0.0148		factor VIIIa A2 subunit, Y664F (other) SVAKKHPKTWVHYIAAEEEDWDYAPLVLAPDDRSYKSQYLNNGPQRIGRKYKKVRFMAYTDETFKTREAIQHESGILGPLLYGEVGDTLLIIFKNQASRPYNIYPHGITDVRPLYSRRLPKGVKHLKDFPILPGEIFKYKWTVTVEDGPTKSDPRCLTRYYSSFVNMERDLASGLIGPLLICYKESVDQRGNQIMSDKRNVILFSVFDENRSWYLTENIQRFLPNPAGVQLEDPEFQASNIMHSINGYVFDSLQLSVCLHEVAYWYILSIGAQTDFLSVFFSGYTFKHKMVFEDTLTLFPFSGETVFMSMENPGLWILGCHNSDFRNRGMTALLKVSSCDKNTGDYYEDSYEDISAYLLSKNNAIEPR
